From paper PMC1635332

What was measured:
Nf DNA polymerase = target: T1, Nf DNA polymerase (Bacillus phage Nf, UniProt B7SSM2 1-572); experiment: EMSA
T1 sequence: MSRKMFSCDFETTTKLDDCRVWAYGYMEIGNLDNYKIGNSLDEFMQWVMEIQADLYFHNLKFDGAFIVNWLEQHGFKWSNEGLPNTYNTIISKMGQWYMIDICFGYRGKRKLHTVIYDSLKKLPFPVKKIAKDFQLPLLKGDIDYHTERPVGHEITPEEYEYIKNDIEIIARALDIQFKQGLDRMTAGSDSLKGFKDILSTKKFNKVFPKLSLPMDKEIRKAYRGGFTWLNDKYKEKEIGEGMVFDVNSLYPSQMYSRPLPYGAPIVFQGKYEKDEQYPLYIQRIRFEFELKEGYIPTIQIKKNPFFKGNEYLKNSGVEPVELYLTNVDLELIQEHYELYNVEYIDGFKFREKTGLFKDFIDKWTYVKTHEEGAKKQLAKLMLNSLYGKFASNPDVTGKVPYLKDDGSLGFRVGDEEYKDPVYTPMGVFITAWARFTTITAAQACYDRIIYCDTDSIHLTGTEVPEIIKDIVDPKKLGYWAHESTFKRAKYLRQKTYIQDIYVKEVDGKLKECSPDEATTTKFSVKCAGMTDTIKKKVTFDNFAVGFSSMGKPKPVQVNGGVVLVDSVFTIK

GA-1 DNA polymerase = target: T2, GA-1 DNA polymerase (Bacillus phage GA-1, UniProt Q96206 1-578); experiment: EMSA
T2 sequence: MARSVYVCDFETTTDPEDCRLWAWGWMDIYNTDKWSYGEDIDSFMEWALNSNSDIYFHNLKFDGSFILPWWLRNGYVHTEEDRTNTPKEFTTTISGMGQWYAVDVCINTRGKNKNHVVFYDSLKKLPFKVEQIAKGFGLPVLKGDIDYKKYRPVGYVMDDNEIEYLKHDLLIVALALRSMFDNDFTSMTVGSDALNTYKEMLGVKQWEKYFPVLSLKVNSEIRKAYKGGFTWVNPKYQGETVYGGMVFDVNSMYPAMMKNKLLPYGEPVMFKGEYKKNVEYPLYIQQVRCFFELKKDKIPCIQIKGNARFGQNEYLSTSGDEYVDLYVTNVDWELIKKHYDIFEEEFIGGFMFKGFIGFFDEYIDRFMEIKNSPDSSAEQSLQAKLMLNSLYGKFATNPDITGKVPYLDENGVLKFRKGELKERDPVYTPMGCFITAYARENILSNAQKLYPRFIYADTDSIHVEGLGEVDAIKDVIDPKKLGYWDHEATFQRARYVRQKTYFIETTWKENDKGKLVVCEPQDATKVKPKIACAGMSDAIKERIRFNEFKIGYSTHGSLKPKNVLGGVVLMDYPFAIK

B1: sp1/sp1c+6 (15/21mer primer/template) (dsDNA)
DNA 1: GATCACAGTGAGTAC
DNA 2: TCTATTGTACTCACTGTGATC
Kd (Nf DNA polymerase): 1.5 nM | binding result (GA-1 DNA polymerase): no binding
